# According to patent US8796201B2 (The Board of Trustees of the Leland Stanford Junior …, priority 2002, dated 2014):
# B1: FM PEP: recombinant prolyl endopeptidase from Flavobacterium meningosepticum (Genbank D10980) (protein)
# chain: QNSNVLKYPETKKVSHTDTYFGTQVSDPYRWLEDDRAEDTKAWVQQEVKFTQDYLAQIPFRDQLKKQLMDIWNYEKISAPFKKGKYTYFSKNDGLQAQSVLYRKDAAGKTEVFLDPNKFSEKGTTSLASVSFNKKGTLVAYSISEGGSDWNKIIILDAETKKQLDETLLDVKFSGISWLGDEGFFYSSYDKPKEGSVLSGMTDKHKVYFHKLGTKQSQDELIIGGDKFPRRYIGAYVTDDQRYLVVSAANATNGNELYIKDLKNKTDFIPIITGFDSNVNVADTDGDTLYLFTDKDAPNKRLVKTTIQNPKAETWKDVIAETSEPLEINTGGGYFFATYMKDAIDQVKQYDKNGKLVRAIKLPGSGNASGFGGEKTEKDLYYSFTNYITPPTIFKYNVTTGNSEVYQKPKVKFNPENYVSEQVFYTSSDGTKIPMMISYKKGLKKDGKNPTILYSYGGFNISLQPAFSVVNAIWMENGGIYAVPNIRGGGEYGKKWHDAGTKMQKKNVFNDFIAAGEYLQKNGYTSKEYMALSGRSNGGLLVGATMTMRPDLAKVAFPGVGVLDMLRYNKFTAGAGWAYDYGTAEDSKEMFEYLKSYSPVHNVKAGTCYPSTMVITSDHDDRVVPAHSFKFGSELQAKQSCKNPILIRIETNAGHGAGRSTEQVVAENADLLSFALYEMGIKSLK
# B2: MX PEP: novel recombinant prolyl endopeptidase from Myxococcus xanthus (Genbank AF127082, SEQ ID NO:47) (protein, listed as Myxococcus xanthus)
# chain: MSYPATRAEQVVDTLHGVQVADPYRWLEDEKAPEVQTWMTAQNAHAREALAKFPGREALAARFKELFYTDSVSTPSRRNGRFFYVRTHKDKEKAILYWRQGESGQEKVLLDPNGWSKDGTVSLGTWAVSWDGKKVAFAQKPNAADEAVLHVIDVDSGEWSKVDVIEGGKYATPKWTPDSKGFYYEWLPTDPSIKVDERPGYTTIRYHTLGTEPSKDTVVHERTGDPTTFLQSDLSRDGKYLFVYILRGWSENDVYWKRPGEKDFRLLVKGVGAKYEVHAWKDRFYVLTDEGAPRQRVFEVDPAKPARASWKEIVPEDSSASLLSVSIVGGHLSLEYLKDATSEVRVATLKGKPVRTVQLPGVGAASNLMGLEDLDDAYYVFTSFTTPRQIYKTSVSTGKSELWAKVDVPMNPEQYQVEQVFYASKDGTKVPMFVVHRKDLKRDGNAPTLLYGYGGFNVNMEANFRSSILPWLDAGGVYAVANLRGGGEYGKAWHDAGRLDKKQNVFDDFHAAAEYLVQQKYTQPKRLAIYGGSNGGLLVGAAMTQRPELYGAVVCAVPLLDMVRYHLFGSGRTWIPEYGTAEKPEDFKTLHAYSPYHHVRPDVRYPALLMMAADHDDRVDPMHARKFVAAVQNSPGNPATALLRIEANAGHGGADQVAKAIESSVDLYSFLFQVLDVQGAQGGVAAQGR
# Assays:
# [1] = tested on: PQPQLPYPQPQLP, 33-mer and pepsin-treated gluten; assay: Competitive proteolysis in pepsin-treated gluten with pancreatic enzymes and BBM; type: biochemical, wheat; settings: pancreatic enzymes, BBM
# Protocol: FIGS. 13A-13B. […] This complex mixture of substrates was treated under physiological conditions with a mixture of pancreatic enzymes (trypsin, chymotrypsin, carboxypeptidase, elastase), brush border membrane enzymes (derived from rat small intestine) and either (A) FM PEP or (B) MX PEP.
# The resulting solution was neutralized using 10 M NaOH and diluted to 10 g/L in a phosphate buffer (40 mM, pH 6.5). […] Prolyl endopeptidase (FM or MX; 1×: 500 mU/ml; 5×: 2.5 U/ml; 10×: 5 U/ml) and rat intestinal brush border surface membranes (BB, 1×: 40 mU/ml, 2×: 80 mU/ml, DPP IV activity) were added to a total volume of 150 μl. The mixture was incubated at 37° C. and […] aliquots were taken at 0, 5, 10, 30 and 60 min and immediately heat deactivated.
# PQPQLPYPQPQLP = assay: Site specificity of […] hydrolysis, LC/MS/MS; type: biochemical, wheat; settings: 100 μM peptide, 0.1 μM enzyme, early time points
# Protocol: FIG. 10. Site specificity of […] hydrolysis by individual PEPs. HPLC-UV (215 nm) traces are shown for each reaction mixture. Initial cleavage fragments (100 μM (SEQ ID NO:4) […], 0.1 μM enzyme, t=5 min) were identified by tandem mass spectrometry. The starting material (SEQ ID NO:4) […] and the cleavage fragments A: (SEQ ID NO:4, aa. 1-8) […], B: (SEQ ID NO:4, aa 7-13) YPQPQLP, C: (SEQ ID NO:12, aa 1-6) PQPQLP, D: (SEQ ID NO:4, aa 2-6) QPQLP) are indicated in the traces.
# The decrease in substrate concentration as well as concomitant intermediate and product build-up were monitored with HPLC analysis. RP-HPLC was performed on a system consisting of Beckman or Rainin Dynamax SD-200, a Varian 340 UV detector set at 215 nm and 280 nm. Solvent A was H2O with 0.1% TFA and solvent B was acetonitrile with 0.1% TFA; gradient used: 0-5% B in 0-15 min, 5-30% B in 15-30′, 30-100% B in 30-35 min, 100% B for 5′; flow 1 ml/min; separation was performed on a 4.6×150 mm reverse phase C-18 column (Vydac, Hesperia, Calif., USA). Samples were centrifuged for 10 min at 13,400 g, prior to injection of 10-100 μl. […] Thus, multiple peptides accumulate during the course of the reaction, some of which are secondary PEP substrates in themselves.
# To analyze the regiospecificity of hydrolysis of (SEQ ID NO:4) […] by individual PEPs, samples corresponding to early time points were further analyzed by LC/MS/MS. […]
# [2] = pH stability (activity retained after acid exposure); type: in vitro ADME; settings: after 10 min of incubation at pH values between 1.6 and 3.9
# Protocol: pH Stability. The ability to retain enzyme activity after exposure to acidic environments was determined. […] The recovered enzyme activity was measured spectrophotometrically and compared with non-acid treated controls under identical conditions. PEP Stability. Although orally administered therapeutic proteins can be formulated to protect them from the acidic and proteolytic environment of the stomach, intrinsic acid stability of a PEP is likely to be a desirable characteristic in its use as a therapeutic agent for Celiac Sprue. […] Thus, although all PEPs appear to be moderately acid-stable, the MX PEP is most versatile. Since therapeutic efficacy would require a PEP to act upon gluten in conjunction with pancreatic proteases that are secreted into the duodenum, the resistance of FM PEP and MX PEP toward both gastric and pancreatic enzymes was evaluated. For this we pre-incubated the enzymes with physiological quantities of either pepsin (at pH 2) or a cocktail comprising of trypsin, chymotrypsin, elastase and carboxypeptidase A (at pH 6.5).
# [3] = Enzyme activity vs. pH (kcat titration); type: biochemical; settings: for active site pKa: 100-4000 μM succinyl-Ala-Pro-pNA
# Protocol: FIG. 8. Effect of pH on the turnover numbers (kcat) of FM PEP, MX PEP and SC PEP.
# Activity Assays. Post-proline cleavage activity was measured using Z-Gly-Pro-p-nitroanilide and Succinyl-Ala-Pro-p-nitroanilide (Bachem, CA). Z-Gly-Pro-pNA was dissolved in a PBS:water:dioxane (8:1.2:0.8) assay mixture. The concentration of Z-Gly-Pro-pNA was varied from 100-600 μM. Although the substrate Z-Gly-Pro-pNA was effective in detecting enzyme activity, its insolubility at higher concentrations precluded kinetic measurements under substrate-saturated conditions. In contrast, Succinyl-Ala-Pro-pNA, had the advantage of high water solubility at all pH values tested, and was therefore a preferred substrate for kinetic studies. […] Reaction mixtures ([…] consisted of 30 μl of 10× pH buffer, final concentration of 0.01 μM enzyme, and Suc-Ala-Pro-pNA to final concentrations between 100 μM to 4 mM.
# Enzyme Activity vs. pH. The luminal environment of the duodenum is approximately at pH 6. Therefore, a therapeutically useful PEP must retain high specific activity at that pH. The steady state turnover rate, kcat, of each PEP was titrated in various pH conditions using 100-4000 μM succinyl-Ala-Pro-pNA, shown in FIG. 8. […] Such conformational changes have been implicated in the catalytic cycle of the structurally characterized porcine brain PEP.
Molecule,"relative rates of proteolysis of PQPQLPYPQPQLP, 33-mer and other gluten peptides [1]",preferred site of cleavage in PQPQLPYPQPQLP (PQPQLPYPQPQLP),original activity retained [2],active site pKa [3],"pH optimum ([3]; as stated in the description, no method given)",time for breakdown of PQPQLPYPQPQLP and other smaller peptides [1]
B1,at comparable rates,PQPQLPPYP|QPQLP,50-70%,~6,~7,–
B2,hydrolysis of the 33-mer occurred at a slower rate,PQPQLP|YPQPQLP,70-90%,~6,–,10 min
